Laboratory results as given in article PMC10854676, “The Impact of Lens Epithelium-Derived Growth Factor p75 Dimerization on Its Tethering Function” (Cells, 2024).

B1: Flag-LEDGF/p75 E451R-E452R (natural protein)
chain: not shown
notes: LEDGF/p75 with two reverse-charge mutations in the α6-helix; source: E. coli BL21(DE3)pLysS, purified (heparin column, Superdex 75); not shown: Flag, N-terminal, kept
B2: His6-LEDGF_(345–530) (domain or fragment, UniProt O75475 345-530, looked up)
chain: ETSMDSRLQRIHAEIKNSLKIDNLDVNRCIEALDELASLQVTMQQAQKHTEMITTLKKIRRFKVSQVIMEKSTMLYNKFKNMFLVGEGDSVITQVLNKSLAEQRQHEEANKTKDQGKKGPNKKLEKEQTGSKTLNGGSDAQDGNQPQHNGESNEDSKDNHEASTKKKPSSEERETEISLKDSTLDN
notes: the plasmid has a TEV site after the His tag, a cleavage is not reported; source: E. coli BL21(DE3)pLysS, purified (Ni-NTA, heparin); not shown: His6, N-terminal, kept

Experiments:
Conditions in all cases: both partners purified
Flag-LEDGF/p75 WT [1] = target: T1, Flag-LEDGF/p75 WT (UniProt O75475 1-530); test: AlphaScreen or HTRF; competition: 150 nM GST-LEDGF/p75 and 150 nM Flag-LEDGF/p75 outcompeted by increasing concentrations of a third LEDGF construct; apparent IC50
T1 construct: LEDGF/p75, aa 1-530, from the pCp-NAT-3xFlag-LEDGF WT construct; also called Flag-tagged LEDGF/p75; Flag-LEDGF_(1–530); source: E. coli BL21(DE3)pLysS, purified (heparin column, Superdex 75); not shown: 3xFlag, N-terminal, kept

His6-LEDGF_(345–530) = target: B2; test: AlphaScreen or HTRF; direct titration or cross-titration of two differently tagged proteins at nanomolar concentrations (one partner fixed at 100-350 nM); no nuclease; protein batches held DNA at 2 µg/mL or lower
GST-LEDGF/p75 = target: T2, GST-LEDGF/p75 (UniProt O75475 1-530); test: as above
T2 construct: LEDGF/p75 (lens epithelium-derived growth factor p75), aa 1-530, expressed from pGEX-p75; also called GST-tagged LEDGF/p75; full-length GST-tagged LEDGF/p75; source: E. coli BL21(DE3)pLysS, purified as described before [24]; not shown: GST, N-terminal, kept

Flag-LEDGF_(1–426) = target: T3, Flag-LEDGF_(1–426) (UniProt O75475 1-426); test: as above
T3 construct: LEDGF/p75 residues 1-426, truncation missing the complete C-term including the α6-helix; source: E. coli BL21(DE3)pLysS, purified (heparin column, Superdex 75); not shown: Flag, N-terminal, kept

Flag-LEDGF/p75 WT [2] = target: T1, Flag-LEDGF/p75 WT; test: as above
[3] = target: B1; test: as above

Binder | IC50 (Flag-LEDGF/p75 WT [1]) [nM] | binding result (Flag-LEDGF_(1–426)) | binding result (Flag-LEDGF/p75 WT [2]) | also measured
His6-LEDGF/p52 (natural protein, lacks the IBD and C-term; also called His6-tagged LEDGF/p52; source: E. coli BL21(DE3)pLysS, purified (Ni-NTA, heparin); not shown: His6, N-terminal, kept) not shown | 12.2 |  |  | 
MBP-LEDGF_(325–426) (domain or fragment, UniProt O75475 325-426, looked up, source: E. coli BL21(DE3)pLysS, purified (amylose resin); not shown: MBP, N-terminal, kept) EQQNKDEGKKPEVKKVEKKRETSMDSRLQRIHAEIKNSLKIDNLDVNRCIEALDELASLQVTMQQAQKHTEMITTLKKIRRFKVSQVIMEKSTMLYNKFKNM |  |  |  | binding result (His6-LEDGF_(345–530)): binds
His6-LEDGF_(1–426) (domain or fragment, LEDGF/p75 residues 1-426 (lacks the C-term with the α6-helix); elsewhere LEDGF1-426 is Flag-tagged; source: E. coli BL21(DE3)pLysS, purified (Ni-NTA, heparin); not shown: His6, N-terminal, kept) not shown | 65.5 |  |  | 
B1 |  |  |  | binding result (GST-LEDGF/p75): binds
B2 | 222 |  |  | fold stronger binding than the mutants E451A and N454A-K455A (Flag-LEDGF_(1–426)): ~2 fold
His6-LEDGF_(345–530) E451A (domain or fragment, UniProt O75475 345-530, looked up, source: E. coli BL21(DE3)pLysS, purified (Ni-NTA, heparin); not shown: His6, N-terminal, kept) ETSMDSRLQRIHAEIKNSLKIDNLDVNRCIEALDELASLQVTMQQAQKHTEMITTLKKIRRFKVSQVIMEKSTMLYNKFKNMFLVGEGDSVITQVLNKSLAEQRQHAEANKTKDQGKKGPNKKLEKEQTGSKTLNGGSDAQDGNQPQHNGESNEDSKDNHEASTKKKPSSEERETEISLKDSTLDN |  | binds | binds | 
His6-LEDGF_(345–530) N454A-K455A (domain or fragment, UniProt O75475 345-530, looked up, source: E. coli BL21(DE3)pLysS, purified (Ni-NTA, heparin); not shown: His6, N-terminal, kept) ETSMDSRLQRIHAEIKNSLKIDNLDVNRCIEALDELASLQVTMQQAQKHTEMITTLKKIRRFKVSQVIMEKSTMLYNKFKNMFLVGEGDSVITQVLNKSLAEQRQHEEAAATKDQGKKGPNKKLEKEQTGSKTLNGGSDAQDGNQPQHNGESNEDSKDNHEASTKKKPSSEERETEISLKDSTLDN |  | binds | binds | 
MLL1_(1–160)-GST (domain or fragment, UniProt Q03164 1-160, looked up, MLL1 residues 1-160; also called MLL1_(1–160) fragment; not shown: GST, C-terminal, kept) MAHSCRWRFPARPGTTGGGGGGGRRGLGGAPRQRVPALLLPPGPPVGGGGPGAPPSPPAVAAAAAAAGSSGAGVPGGAAAASAASSSSASSSSSSSSSASSGPALLRVGPGFDAALQVSAAIGTNLRRFRAVFGESGGGGGSGEDEQFLGFGSDEEVRVR |  | binds | binds | binding result [3]: binds
